Measured values reported in patent US20110142849A1 (IRM, published 2011).
Numbering of substitutions follows the chain as printed.

T1: hAgr2 (human, UniProt O95994)
T1 construct: panel antigen of the specificity ELISA
T1 sequence (antigen, looked up): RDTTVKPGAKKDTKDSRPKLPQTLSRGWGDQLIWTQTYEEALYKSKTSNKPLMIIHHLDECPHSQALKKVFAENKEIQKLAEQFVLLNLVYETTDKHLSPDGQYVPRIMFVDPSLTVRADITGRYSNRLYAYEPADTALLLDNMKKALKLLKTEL

T2: hFGFR4 (human, UniProt P22455)
T2 construct: panel antigen of the specificity ELISA
T2 sequence (antigen, looked up): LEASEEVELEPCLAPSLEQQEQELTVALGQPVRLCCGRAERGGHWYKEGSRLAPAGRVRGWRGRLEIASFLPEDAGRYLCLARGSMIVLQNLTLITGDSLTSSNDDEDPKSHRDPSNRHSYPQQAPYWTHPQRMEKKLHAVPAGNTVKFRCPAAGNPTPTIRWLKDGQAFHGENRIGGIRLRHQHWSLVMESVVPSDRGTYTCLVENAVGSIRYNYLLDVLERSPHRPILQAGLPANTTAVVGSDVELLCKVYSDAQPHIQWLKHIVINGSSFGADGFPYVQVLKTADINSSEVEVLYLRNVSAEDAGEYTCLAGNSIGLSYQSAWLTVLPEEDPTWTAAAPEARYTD

T3: hGITR (human, UniProt Q9Y5U5)
T3 construct: panel antigen of the specificity ELISA
T3 sequence (antigen, looked up): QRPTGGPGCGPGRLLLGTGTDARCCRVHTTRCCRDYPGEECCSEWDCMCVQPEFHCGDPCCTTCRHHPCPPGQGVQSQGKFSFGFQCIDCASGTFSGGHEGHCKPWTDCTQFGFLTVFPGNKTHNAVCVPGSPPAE

T4: hβ-Klotho (human, UniProt Q86Z14)
T4 construct: panel antigen of the specificity ELISA
T4 sequence (antigen, looked up): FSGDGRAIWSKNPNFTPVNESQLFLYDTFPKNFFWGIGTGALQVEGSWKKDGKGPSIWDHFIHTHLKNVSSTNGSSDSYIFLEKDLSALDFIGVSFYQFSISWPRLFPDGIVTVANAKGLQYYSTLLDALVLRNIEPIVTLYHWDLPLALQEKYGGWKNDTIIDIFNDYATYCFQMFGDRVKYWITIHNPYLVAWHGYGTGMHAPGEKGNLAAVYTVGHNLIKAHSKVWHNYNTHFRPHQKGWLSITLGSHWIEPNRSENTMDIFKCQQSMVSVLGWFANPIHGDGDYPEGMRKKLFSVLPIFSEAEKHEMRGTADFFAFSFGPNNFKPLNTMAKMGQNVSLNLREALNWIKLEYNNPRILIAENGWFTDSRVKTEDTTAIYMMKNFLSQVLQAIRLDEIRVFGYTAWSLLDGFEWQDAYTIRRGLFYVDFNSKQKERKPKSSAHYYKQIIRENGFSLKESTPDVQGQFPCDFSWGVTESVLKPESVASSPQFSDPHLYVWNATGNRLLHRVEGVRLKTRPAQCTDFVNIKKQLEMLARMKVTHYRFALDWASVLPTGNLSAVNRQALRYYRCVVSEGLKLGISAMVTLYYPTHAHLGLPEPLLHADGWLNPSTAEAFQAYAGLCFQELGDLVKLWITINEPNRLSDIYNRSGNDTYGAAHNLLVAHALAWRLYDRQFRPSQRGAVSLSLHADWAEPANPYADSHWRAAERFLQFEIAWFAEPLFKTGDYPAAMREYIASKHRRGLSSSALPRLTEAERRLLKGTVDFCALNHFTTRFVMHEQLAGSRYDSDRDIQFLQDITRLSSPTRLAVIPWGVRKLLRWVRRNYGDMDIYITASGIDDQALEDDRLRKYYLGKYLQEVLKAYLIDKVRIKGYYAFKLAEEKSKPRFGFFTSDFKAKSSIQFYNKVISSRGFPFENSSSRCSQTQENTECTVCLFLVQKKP

T5: hNotch-3 NRR (human, UniProt Q9UM47)
T5 construct: panel antigen of the specificity ELISA
T5 sequence (antigen, looked up): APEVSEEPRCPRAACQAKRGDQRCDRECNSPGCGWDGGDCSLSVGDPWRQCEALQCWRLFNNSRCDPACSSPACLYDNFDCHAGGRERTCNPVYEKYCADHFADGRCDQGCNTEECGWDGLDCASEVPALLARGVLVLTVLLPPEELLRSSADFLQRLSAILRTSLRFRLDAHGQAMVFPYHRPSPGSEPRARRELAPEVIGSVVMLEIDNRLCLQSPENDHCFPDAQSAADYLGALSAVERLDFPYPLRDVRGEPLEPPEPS

B1: NVP-LGT209 (antibody, human IgG1)
heavy: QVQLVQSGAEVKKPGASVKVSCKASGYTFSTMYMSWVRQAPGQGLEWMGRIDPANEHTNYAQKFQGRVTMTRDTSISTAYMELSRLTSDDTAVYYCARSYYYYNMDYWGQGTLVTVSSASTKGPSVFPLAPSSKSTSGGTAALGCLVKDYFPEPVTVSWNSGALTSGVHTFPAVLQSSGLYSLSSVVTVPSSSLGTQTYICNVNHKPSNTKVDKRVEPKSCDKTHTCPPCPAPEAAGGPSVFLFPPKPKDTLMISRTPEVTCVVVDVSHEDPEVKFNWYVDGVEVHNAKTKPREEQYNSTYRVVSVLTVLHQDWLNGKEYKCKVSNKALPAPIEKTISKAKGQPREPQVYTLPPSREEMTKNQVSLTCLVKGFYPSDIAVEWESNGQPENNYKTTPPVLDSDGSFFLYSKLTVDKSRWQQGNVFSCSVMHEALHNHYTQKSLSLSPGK
light: QIVLTQSPATLSVSPGERATLSCRASQSVSYMHWYQQKPGQAPRLLIYGVFRRATGIPDRFSGSGSGTDFTLTIGRLEPEDFAVYYCLQWSSDPPTFGQGTKLEIKRTVAAPSVFIFPPSDEQLKSGTASVVCLLNNFYPREAKVQWKVDNALQSGNSQESVTEQDSKDSTYSLSSTLTLSKADYEKHKVYACEVTHQGLSSPVTKSFNRGEC
notes: Silent human IgG1 kappa made in 293 Freestyle cells; also called pJG04 (Vh) + pJG10 (Vk)
B2: NVP-LGT210 (antibody, human IgG1)
heavy: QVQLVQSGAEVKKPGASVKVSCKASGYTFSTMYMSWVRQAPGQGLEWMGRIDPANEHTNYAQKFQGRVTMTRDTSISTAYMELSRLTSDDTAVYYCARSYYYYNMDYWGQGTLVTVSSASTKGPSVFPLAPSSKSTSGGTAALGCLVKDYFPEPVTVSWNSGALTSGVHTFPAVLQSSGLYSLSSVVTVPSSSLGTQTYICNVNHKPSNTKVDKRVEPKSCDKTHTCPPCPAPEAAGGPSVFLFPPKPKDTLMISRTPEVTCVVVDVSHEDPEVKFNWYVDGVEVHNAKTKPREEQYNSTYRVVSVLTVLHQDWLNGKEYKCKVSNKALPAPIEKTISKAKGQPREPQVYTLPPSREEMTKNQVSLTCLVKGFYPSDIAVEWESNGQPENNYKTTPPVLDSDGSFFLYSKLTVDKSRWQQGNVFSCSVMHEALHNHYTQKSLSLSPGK
light: B1 light with Q1E, L4M
notes: Silent human IgG1 kappa; also called pJG04 (Vh) + pJG01 (Vk)
B3: CDRH1-variant Fab SR079 (Fab, V domains shown)
VH: QVQLVQSGAEVKKPGASVKVSCKASGYTFSTMYMSWVRQAPGQGLEWMGRIDPANGHTNYAQKFQGRVTMTRDTSISTAYMELSRLTSDDTAVYYCARSYYYYAMDYWGQGTLVTVSS
VL: EIVMTQSPATLSVSPGERATLSCRASQSVSSSHVAWYQQKPGQAPRLLIYGVFRRATGIPDRFSGSGSGTDFTLTIGRLEPEDFAVYYCLQWSSDPPTFGQGTKLEIK
notes: also called SR079 (humaneered)

Experiments:
[1] = biological target: T6, mouse Pcsk9 with C-terminal his6 tag (mouse, UniProt Q80W65 35-694, limits assumed); assay: not told in the legend
T6 construct: also called murine PCSK9

[2] = biological target: T7, recombinant human Pcsk9 (aa 31-692) with C-terminal his6 tag (human, UniProt Q8NBP7 31-692); assay: Solution Equilibrium Titration (SET), MSD read-out
T7 construct: In the TR-FRET assay it carried a fluorophore (hPcsk9-AF); also called hPCSK9; hPcsk9
Method: The binding kinetics of IgGs and Fab fragments were analyzed using a Solution Equilibrium Titration (“SET”) assay. Briefly, serial dilutions of hPCSK9 were added to 60 pM IgG or Fab and incubated overnight. A 96-well Standard Bind microtiter plate (Meso Scale Discovery) was coated with 1 μg/ml hPCSK9 and incubated overnight, washed with PBS/0.05% (w/v) Tween 20, blocked with PBS/5% (w/v) BSA, and washed again. The antibody-antigen preparation was added to the PCSK9-coated Standard Bind plate and incubated for 30 min at room temperature. After three additional washing steps, Sulfo-Tag-labeled goat-anti-human-detection antibody (R32AJ-5, Meso Scale Discovery) was added and incubated one hour at room temperature. After washing the plate three times, Read Buffer (Meso Scale Discovery) was added and electrochemiluminescence (ECL) signals were measured by a Sector Imager 6000 (Meso Scale Discovery). ECL data were processed with the excel add-in XLfit 4.3.2 (ID Business Solutions) using the fitting model applicable for antibodies described in Piehler, et al., (1997) J Immunol Methods 201:189-206.

hAgr2 = biological target: T1, hAgr2; assay: specificity ELISA on coated antigen (88 ng per well), antibody at 2 µg/mL, ABS650
Method: (§1) For specificity ELISAs on purified human and mouse IgGs, a 384-well plate was coated with a panel of purified human or mouse antigens at 88 ng per well and incubated overnight at 4° C. The plate was blocked and washed as described above, then 22 μL of purified mouse or human anti-PCSK9 antibody diluted to 2 μg/mL in PBS was added to each well. The plate was incubated for 1 hr at 37° C. then washed with PBST. Anti-mouse Fc antibody (Jackson ImmunoResearch Labs #115-035-071) or anti-human kappa antibody (Sigma #A7164) conjugated to HRP was diluted 1:5000 in PBS (25 μL) and added to each well. The plate was incubated for 1 hr at room temperature, then washed and developed as described above.
(§2) In order to test whether the antigen specificity of the parental mouse antibody LFU720 was retained in the final Humaneered™ IgGs, LGT209, LGT210 and LGT211, binding of the antibodies to a panel of human and mouse antigens (as well as human PCSK9) was tested in an ELISA assay.

hTrkB = biological target: T8, hTrkB (human, UniProt Q16620); assay: as above
T8 construct: panel antigen of the specificity ELISA
Method: as §1, §2

hDDR1 = biological target: T9, hDDR1 (human, UniProt Q08345); assay: as above
T9 construct: panel antigen of the specificity ELISA
Method: as §1, §2

hFGFR4 = biological target: T2, hFGFR4; assay: as above
Method: as §1, §2

hGITR = biological target: T3, hGITR; assay: as above
Method: as §1, §2

hIL-12RB1 = biological target: T10, hIL-12RB1 (human, UniProt P42701); assay: as above
T10 construct: panel antigen of the specificity ELISA
Method: as §1, §2

hβ-Klotho = biological target: T4, hβ-Klotho; assay: as above
Method: as §1, §2

hNotch-3 NRR = biological target: T5, hNotch-3 NRR; assay: as above
Method: as §1, §2

hRspo-2 = biological target: T11, hRspo-2 (human, UniProt Q6UXX9); assay: as above
T11 construct: panel antigen of the specificity ELISA
Method: as §1, §2

[3] = biological target: T7, recombinant human Pcsk9 (aa 31-692) …; assay: ForteBio Octet, purified Fab

T7 sequence (Q8NBP7 other isoform, or with tags, fused parts or gaps limits assumed, form in doubt): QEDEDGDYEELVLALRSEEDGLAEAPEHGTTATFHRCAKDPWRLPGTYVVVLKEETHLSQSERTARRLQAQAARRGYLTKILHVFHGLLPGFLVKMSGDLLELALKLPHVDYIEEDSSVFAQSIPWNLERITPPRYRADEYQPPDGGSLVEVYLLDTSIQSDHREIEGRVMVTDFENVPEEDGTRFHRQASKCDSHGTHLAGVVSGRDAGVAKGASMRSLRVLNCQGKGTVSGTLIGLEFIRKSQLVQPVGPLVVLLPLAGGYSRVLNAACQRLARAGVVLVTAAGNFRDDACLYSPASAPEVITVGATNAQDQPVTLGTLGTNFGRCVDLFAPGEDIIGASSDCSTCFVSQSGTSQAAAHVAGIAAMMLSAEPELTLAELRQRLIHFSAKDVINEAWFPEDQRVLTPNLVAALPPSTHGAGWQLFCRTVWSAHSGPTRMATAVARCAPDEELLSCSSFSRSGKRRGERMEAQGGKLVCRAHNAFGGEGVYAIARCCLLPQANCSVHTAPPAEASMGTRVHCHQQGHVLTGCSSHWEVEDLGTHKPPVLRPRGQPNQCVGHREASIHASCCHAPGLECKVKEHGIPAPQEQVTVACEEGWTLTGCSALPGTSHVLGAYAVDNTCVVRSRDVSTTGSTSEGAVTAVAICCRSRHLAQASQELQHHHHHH
T11 sequence (Q6UXX9 22-243 limits assumed): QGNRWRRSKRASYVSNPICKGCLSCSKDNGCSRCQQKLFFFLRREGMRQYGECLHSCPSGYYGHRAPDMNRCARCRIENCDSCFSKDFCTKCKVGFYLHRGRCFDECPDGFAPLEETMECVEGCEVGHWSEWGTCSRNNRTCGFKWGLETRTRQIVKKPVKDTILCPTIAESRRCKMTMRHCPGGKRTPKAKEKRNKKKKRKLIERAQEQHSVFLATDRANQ
T6 sequence (Q80W65 other isoform, or with tags, fused parts or gaps limits assumed): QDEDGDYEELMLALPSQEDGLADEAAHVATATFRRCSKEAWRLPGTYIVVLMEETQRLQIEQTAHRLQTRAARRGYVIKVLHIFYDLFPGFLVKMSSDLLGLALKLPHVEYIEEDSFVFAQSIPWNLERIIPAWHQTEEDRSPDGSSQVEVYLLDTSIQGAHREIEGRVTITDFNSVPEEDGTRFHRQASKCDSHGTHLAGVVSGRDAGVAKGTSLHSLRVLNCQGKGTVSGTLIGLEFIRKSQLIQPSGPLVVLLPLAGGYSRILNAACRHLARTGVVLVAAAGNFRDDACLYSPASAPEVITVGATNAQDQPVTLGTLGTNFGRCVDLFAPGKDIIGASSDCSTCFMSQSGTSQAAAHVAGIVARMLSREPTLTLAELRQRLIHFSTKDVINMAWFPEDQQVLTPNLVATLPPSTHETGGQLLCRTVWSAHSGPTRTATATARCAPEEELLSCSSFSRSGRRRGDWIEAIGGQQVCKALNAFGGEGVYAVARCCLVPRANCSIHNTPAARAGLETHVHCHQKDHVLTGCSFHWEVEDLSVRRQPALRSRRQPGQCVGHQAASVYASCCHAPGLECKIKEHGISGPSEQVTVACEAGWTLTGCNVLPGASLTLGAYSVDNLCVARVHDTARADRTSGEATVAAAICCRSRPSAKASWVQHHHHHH
T8 sequence (Q16620 32-430 limits assumed): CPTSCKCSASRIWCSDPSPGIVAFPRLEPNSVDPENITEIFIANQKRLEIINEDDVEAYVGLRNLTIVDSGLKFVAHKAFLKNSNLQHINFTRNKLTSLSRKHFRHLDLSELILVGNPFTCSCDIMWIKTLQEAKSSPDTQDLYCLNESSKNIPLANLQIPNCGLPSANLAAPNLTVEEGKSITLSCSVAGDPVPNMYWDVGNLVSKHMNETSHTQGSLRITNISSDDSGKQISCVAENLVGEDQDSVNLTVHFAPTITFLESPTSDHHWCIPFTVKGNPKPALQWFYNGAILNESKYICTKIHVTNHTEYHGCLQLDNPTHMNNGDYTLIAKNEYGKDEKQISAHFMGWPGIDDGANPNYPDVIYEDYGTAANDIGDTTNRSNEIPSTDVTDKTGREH
T9 sequence (Q08345 21-416 limits assumed): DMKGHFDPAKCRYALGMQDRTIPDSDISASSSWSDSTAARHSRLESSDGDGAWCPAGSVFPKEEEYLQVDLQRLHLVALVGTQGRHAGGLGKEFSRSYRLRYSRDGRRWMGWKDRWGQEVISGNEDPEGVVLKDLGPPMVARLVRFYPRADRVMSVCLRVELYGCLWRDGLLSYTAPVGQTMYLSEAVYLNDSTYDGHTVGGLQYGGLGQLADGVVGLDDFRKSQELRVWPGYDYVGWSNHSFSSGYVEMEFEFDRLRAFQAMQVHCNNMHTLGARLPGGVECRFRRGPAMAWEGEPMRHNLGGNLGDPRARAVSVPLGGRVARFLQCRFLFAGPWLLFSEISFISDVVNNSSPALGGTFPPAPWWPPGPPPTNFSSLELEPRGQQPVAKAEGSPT

Binder	binding result [1]	Kd [2] [nM]	binding result (hAgr2)	binding result (hTrkB)	binding result (hDDR1)	binding result (hFGFR4)	binding result (hGITR)	binding result (hIL-12RB1)	binding result (hβ-Klotho)	binding result (hNotch-3 NRR)	binding result (hRspo-2)	Kd [3] [nM]
B1	no binding	0.19	no binding (tested: 2 µg/mL)	no binding (tested: 2 µg/mL)	no binding (tested: 2 µg/mL)	no binding (tested: 2 µg/mL)	no binding (tested: 2 µg/mL)	no binding (tested: 2 µg/mL)	no binding (tested: 2 µg/mL)	no binding (tested: 2 µg/mL)	no binding (tested: 2 µg/mL)	–
B2	no binding	0.15	no binding (tested: 2 µg/mL)	no binding (tested: 2 µg/mL)	no binding (tested: 2 µg/mL)	no binding (tested: 2 µg/mL)	no binding (tested: 2 µg/mL)	no binding (tested: 2 µg/mL)	no binding (tested: 2 µg/mL)	no binding (tested: 2 µg/mL)	no binding (tested: 2 µg/mL)	–
B3	–	–	–	–	–	–	–	–	–	–	–	54.2
